In US20220041738A1 (SAITAMA MEDICAL UNIVERSITY, published 2022):
Where a chain is given by its changes, count along the chain named. Blank lines part the entries; values can stand above or below the binder they belong to.

Tests used:
Test in all cases: immunofluorescence on transfected, formalin-fixed C2C12 cells, IgG at 10 µg/mL, Alexa 594 anti-rat IgG
[1] = biological target: T1, human ALK2-R375P on cells (human, UniProt Q04771 21-509)
T1 sequence: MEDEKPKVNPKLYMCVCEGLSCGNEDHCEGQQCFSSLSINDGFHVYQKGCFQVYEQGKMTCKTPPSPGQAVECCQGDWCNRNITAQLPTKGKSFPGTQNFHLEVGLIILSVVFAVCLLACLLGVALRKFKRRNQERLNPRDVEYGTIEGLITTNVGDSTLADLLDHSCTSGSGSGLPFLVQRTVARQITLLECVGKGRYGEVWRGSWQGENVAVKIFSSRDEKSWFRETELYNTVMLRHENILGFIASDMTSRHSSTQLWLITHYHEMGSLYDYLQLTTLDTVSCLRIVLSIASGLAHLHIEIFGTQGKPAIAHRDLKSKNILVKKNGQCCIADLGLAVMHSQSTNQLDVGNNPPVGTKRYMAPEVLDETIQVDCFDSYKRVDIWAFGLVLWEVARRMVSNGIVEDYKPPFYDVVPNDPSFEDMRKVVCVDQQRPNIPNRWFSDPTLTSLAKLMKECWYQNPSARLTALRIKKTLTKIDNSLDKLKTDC
Protocol: (§1) Mouse C2C12 cells were seeded into a 96-well plate (Greiner Bio-One) at 0.5×10³ cells/well, and cultured in 15% FBS-containing DMEM medium overnight under the conditions of 5% CO₂ at 37° C. On the following day, the C2C12 cells were transfected with each of a wild-type human ALK2 cDNA integrated into pcDEF3; pcDEF3/human ALK2-L196P, pcDEF3/human ALK2-P197_F198delinsL, pcDEF3/human ALK2-R202I, pcDEF3/human ALK2-R206H, pcDEF3/human ALK2-Q207E, pcDEF3/human ALK2-R258S, pcDEF3/human ALK2-G325A, pcDEF3/human ALK2-G328E, pcDEF3/human ALK2-G328R, pcDEF3/human ALK2-G328W, pcDEF3/human ALK2-G356D, and pcDEF3/human ALK2-R375P, which are variants identified in FOP; and pcDEF3 as a control, using Lipofectamine 2000 (Invitrogen), and further cultured overnight.
(§2) The C2C12 cells were fixed with 10% neutral formalin (Nacalai Tesque, Japan) for 20 minutes at room temperature, and then blocked with 10% goat normal serum for 30 minutes. After the blocking agent was removed, purified IgG diluted to 10 μg/mL with the blocking agent was added, and the cells were left for 1 hour at room temperature. After the cells were washed with PBS three times, Goat Alexa 594-conjugated anti-rat IgG (Invitrogen) diluted to 1:1000 with the blocking agent was added, and the cells were left for 1 hour at room temperature. After the cells were washed with PBS three times, the cells were fixed with 10% neutral formalin for 15 minutes at room temperature, and nuclear-stained with DAPI (LifeTechnologies). Fluorescent signals were analyzed with a fluorescence microscope BZ-9000 (Keyence).

[2] = biological target: T2, human ALK2-R202I on cells (human, UniProt Q04771 21-509)
T2 sequence: T1 sequence with R182I, P355R
Protocol: as §1, §2

[3] = biological target: T3, human ALK2-G325A on cells (human, UniProt Q04771 21-509)
T3 sequence: T1 sequence with G305A, P355R
Protocol: as §1, §2

[4] = biological target: T4, human ALK2-R206H on cells (human, UniProt Q04771 21-509)
T4 sequence: T1 sequence with R186H, P355R
Protocol: as §1, §2

binding result [1]: binds
binding result [2]: binds
binding result [3]: binds
binding result [4]: binds
B1: rat anti-ALK2 monoclonal antibody A2-25C (antibody, V domains shown)
VH: EVQLVESGGGLVQPGGSLKLSCAASGFTFSYYAMSWVCQAPTKGLEWVASISRGGDNTYYRDTVKGRFTTSRDNAKNTLYLQMDSLRSEDTATYYCARLNYNNYFDYWGQGVMVTVSS
VL: DIQMTQSPASLSASLEEIVTITCQASQDIGNWLSWYQQKPGKSPQLLIYGATSLADGVPSRFSGSRSGTQYSLKISRLRVEDIGIYYCLQAYSAPFTFGSGTKLEIKR
notes: Rat monoclonal IgG from a hybridoma; also called 25C11

binding result [1]: binds
binding result [2]: binds
binding result [3]: binds
binding result [4]: binds
B2: rat anti-ALK2 monoclonal antibody A2-27D (antibody, V domains shown)
VH: EVQLVESGGGLVQPGRSLKLSCLASGSTFSNYGMKWIRQAPGKGLEWVASISRSSTYIYYADTVKGRFTISRDNARNTLYLQMTSLRSEDTALYYCAAAISTPFYWYFDFWGPGTVVTVSS
VL: EIVLTQSPTTMAASPGEKVTLNCLASSSVSYMTWYQQKSGASPKLWIYGTSNLASGVPNRFSGSGSGTSYSLAISSMEAEDVATYYCLHLTSYPPYTFGAGTKLELKR
notes: Rat monoclonal IgG from a hybridoma; also called 27D11
